Test results: patent US20240254258A1 (TRELLIS BIOSCIENCE, published 2024)

B1: TRL10051 (antibody, IgG1, V domains shown)
VH: QVQLVESGGGLVQPGGSLRLSCAASGFTFSSYVMSWVRQAPGKGLEWVSSIRVSGDRAHYADSVKGRFTVSRDDSKNTVYLQMNSLRVEDTAVYYCVKDQAERLLRAVTTHFDYWGQGALVTVSS
VL: DIVMTQSPLSSPVTLGQPASISCRSSQSLVHSDGNTYLSWLQQRPGQPPRLLIYKVSRRFSGVPDRFSGSGAGTDFTLKISRVEAEDVGIYYCMQASQFPRTFGQGTKVEIKR
notes: Native human mAb from donor 223
B2: TRL10005 (antibody, IgG1, V domains shown)
VH: QVQLVESGGGLVKPGGSLRLSCAASGFTFNDHYMTWIRQAPGKGLEWISYISSSGGTIFYAESVKGRFTISRDNANNILFLQMNSLRAEDTAVYYCARGALRFLEWSHLGSWGQGTLVTVSS
VL: DIVLTQSPGTLSLSPGERATLSCRASQRVSSSYLAWFQQKPGQAPRLLIYGASTRATGIPDRFSGSGSGTDFTLTISRLEPEDFAVYYCQQYGMSSWTFGQGTKVEIKR
notes: Native human mAb from donor 236
B3: TRL10014 (antibody, IgG1, V domains shown)
VH: QVQLVESGGGLVKPGGSLRLSCTASGFSFSDSYMNWIRQAPGKGLEWLAYISTSATYTYSADSVKGRFTISRDNAKNSLYLQMNSLRDEDTAVYYCAREGLFYDGLYGMDVWGQGTTVIVSS
VL: DILMTQSPLSLPVTPGEPASISCRSSQSLLHSNGYNYLNWYLQKPGQSPQLLIYLGSNRASGVPDRFSGSGSGTDFTLKISSVEAEDVGVYYCMQALHTPRTFGQGTKVEIKR
notes: Native human mAb from donor 210; also called TRL100014

Biological target: T1, ALK Extracellullar Domain (ECD), generated by Trellis in mammalian cells (human, UniProt Q9UM73 19-1038)
T1 construct: extracellular domain; Recombinant ECD made in-house in mammalian cells; also called ALK ECD; extracellular domain of ALK
Assay: adsorption ELISA on ALK ECD, serial dilutions, estimate of binding affinity
Experimental: Purified mAbs were tested in adsorption ELISA using ALK Extracellullar Domain (ECD), generated by Trellis in mammalian cells. TRL10001 is of particular interest based on its sub-nM affinity to the target.

T1 sequence (Q9UM73 19-1038): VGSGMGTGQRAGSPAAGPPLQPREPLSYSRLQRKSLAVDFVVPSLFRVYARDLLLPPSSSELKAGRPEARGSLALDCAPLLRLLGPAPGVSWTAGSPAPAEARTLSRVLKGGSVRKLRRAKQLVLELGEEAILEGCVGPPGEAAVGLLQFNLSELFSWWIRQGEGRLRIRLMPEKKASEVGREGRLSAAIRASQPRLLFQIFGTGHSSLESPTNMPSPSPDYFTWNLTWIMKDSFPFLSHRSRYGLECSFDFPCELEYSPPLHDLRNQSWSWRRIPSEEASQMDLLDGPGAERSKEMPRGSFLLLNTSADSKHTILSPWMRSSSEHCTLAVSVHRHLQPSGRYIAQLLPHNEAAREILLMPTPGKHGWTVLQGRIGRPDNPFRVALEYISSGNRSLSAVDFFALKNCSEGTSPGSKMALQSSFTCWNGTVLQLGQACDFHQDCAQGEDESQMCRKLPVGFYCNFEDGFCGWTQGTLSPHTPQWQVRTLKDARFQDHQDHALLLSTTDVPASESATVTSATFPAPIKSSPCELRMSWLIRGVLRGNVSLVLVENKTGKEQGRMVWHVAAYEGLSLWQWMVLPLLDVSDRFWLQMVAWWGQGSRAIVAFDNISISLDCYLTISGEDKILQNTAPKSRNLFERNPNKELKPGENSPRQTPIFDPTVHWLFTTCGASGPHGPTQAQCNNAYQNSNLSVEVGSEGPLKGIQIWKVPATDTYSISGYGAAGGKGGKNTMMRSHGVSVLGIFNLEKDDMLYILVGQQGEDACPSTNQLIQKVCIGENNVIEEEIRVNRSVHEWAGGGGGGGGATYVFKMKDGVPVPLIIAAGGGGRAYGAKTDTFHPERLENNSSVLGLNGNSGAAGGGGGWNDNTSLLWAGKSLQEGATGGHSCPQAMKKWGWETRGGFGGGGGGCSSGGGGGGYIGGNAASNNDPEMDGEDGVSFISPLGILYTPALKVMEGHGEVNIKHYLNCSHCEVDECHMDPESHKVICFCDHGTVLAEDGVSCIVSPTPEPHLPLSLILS

Row | Binder | Affinity [nM]
1 | B1 | 1
2 | B2 | 1
3 | B3 | 75
